Changes are numbered by the printed parent chain.
B1: NRC3_wobSeed63_DR2_T8G_o1 (dsDNA)
DNA 1: GCCGAACGAGGTCACCAGGACAGTGAAGAGGTTGGAGCGATTGACAGCGTAGAATGAAGG
DNA 2: CCTTCATTCTACGCTGTCAATCGCTCCAACCTCTTCACTGTCCTGGTGACCTCGTTCGGC
B2: NRC3_wobSeed53_DR2_C8A_o1 (dsDNA)
DNA 1: GCCCTTAAGGGTCACGAGGTTATAGCACGACGAGCGGCGATTGACAGCGTAGAATGAAGG
DNA 2: CCTTCATTCTACGCTGTCAATCGCCGCTCGTCGTGCTATAACCTCGTGACCCTTAAGGGC
B3: NRC3_wobSeed13_DR0_A8G_o1 (dsDNA)
DNA 1: GCCGTCCGAGGTCAAGGTCAGTGAAAGAGACTCGAAGCGATTGACAGCGTAGAATGAAGG
DNA 2: CCTTCATTCTACGCTGTCAATCGCTTCGAGTCTCTTTCACTGACCTTGACCTCGGACGGC
B4: NRC3_random_hg19_443_o1 (dsDNA)
DNA 1: GCTAGTACTTGGTCCATAGCACTACTACTCACTTTGGCGATTGACAGCGTAGAATGAAGG
DNA 2: CCTTCATTCTACGCTGTCAATCGCCAAAGTGAGTAGTAGTGCTATGGACCAAGTACTAGC
B5: NRC3_random_hg19_114_o1 (dsDNA)
DNA 1: GCCAAGGCAGCCAGAACTGATGATTGCACTGTGTGGGCGATTGACAGCGTAGAATGAAGG
DNA 2: CCTTCATTCTACGCTGTCAATCGCCCACACAGTGCAATCATCAGTTCTGGCTGCCTTGGC
B6: NRC3_random_hg19_63_o1 (dsDNA)
DNA 1: GCTTTCAAGGCAGTAAGAGTTTGCTGTGCATCAGCTGCGATTGACAGCGTAGAATGAAGG
DNA 2: CCTTCATTCTACGCTGTCAATCGCAGCTGATGCACAGCAAACTCTTACTGCCTTGAAAGC
B7: NRC3_wobSeed109_DR4_T15C_o1 (dsDNA)
DNA 1: GCCGTCCAAGGTCACAGGAGGTCAGTGAAGACAGATGCGATTGACAGCGTAGAATGAAGG
DNA 2: CCTTCATTCTACGCTGTCAATCGCATCTGTCTTCACTGACCTCCTGTGACCTTGGACGGC
B8: NRC3_random_hg19_45_o1 (dsDNA)
DNA 1: GCAAACACAAAGTTTGGGCTGCCTTCTCTAGAGATTGCGATTGACAGCGTAGAATGAAGG
DNA 2: CCTTCATTCTACGCTGTCAATCGCAATCTCTAGAGAAGGCAGCCCAAACTTTGTGTTTGC
B9: NRC3_wobSeed92_DR3_A20T_o1 (dsDNA)
DNA 1: GCAGAATGAGGTTATTAAGTTCAGGGAATTGCGGTCGCGATTGACAGCGTAGAATGAAGG
DNA 2: CCTTCATTCTACGCTGTCAATCGCGACCGCAATTCCCTGAACTTAATAACCTCATTCTGC
B10: NRC3_wobSeed92_DR3_A20G_o1 (dsDNA)
DNA 1: B9 DNA 1 with T20G
DNA 2: B9 DNA 2 with A41C
B11: NRC3_wobSeed95_DR3_G12T_o1 (dsDNA)
DNA 1: GCAGAACGAGGTCAATGAGTTGATAGCACGGGTGGCGCGATTGACAGCGTAGAATGAAGG
DNA 2: CCTTCATTCTACGCTGTCAATCGCGCCACCCGTGCTATCAACTCATTGACCTCGTTCTGC
B12: NRC3_wobSeed95_DR3_A9G_o1 (dsDNA)
DNA 1: B11 DNA 1 with A9G, T12G
DNA 2: B11 DNA 2 with A49C, T52C
B13: NRC3_wobSeed95_DR3_G22T_o1 (dsDNA)
DNA 1: B11 DNA 1 with T12G, G22T
DNA 2: B11 DNA 2 with C39A, A49C
B14: NRC3_wobSeed28_DR1_T26G_o1 (dsDNA)
DNA 1: GCCCTACTGGGCCAAAGGTCATTGAGTCCAATGCTCGCGATTGACAGCGTAGAATGAAGG
DNA 2: CCTTCATTCTACGCTGTCAATCGCGAGCATTGGACTCAATGACCTTTGGCCCAGTAGGGC
B15: NRC3_wobSeed77_DR3_G20T_o1 (dsDNA)
DNA 1: GCACTTACGGGTCAACGAGTTTATAGCACGCGTATAGCGATTGACAGCGTAGAATGAAGG
DNA 2: CCTTCATTCTACGCTGTCAATCGCTATACGCGTGCTATAAACTCGTTGACCCGTAAGTGC
B16: NRC3_wobSeed74_DR3_T9G_o1 (dsDNA)
DNA 1: GCTCTAGTGGGTCACGGAGGTCACACACGACGGGTAGCGATTGACAGCGTAGAATGAAGG
DNA 2: CCTTCATTCTACGCTGTCAATCGCTACCCGTCGTGTGTGACCTCCGTGACCCACTAGAGC
B17: NRC3_wobSeed74_DR3_G16C_o1 (dsDNA)
DNA 1: B16 DNA 1 with G9T, G16C
DNA 2: B16 DNA 2 with C45G, C52A
B18: NRC3_wobSeed65_DR2_C25G_o1 (dsDNA)
DNA 1: GCATATGTAGGTTATCGGGTCATTGAGTTTGCGCATGCGATTGACAGCGTAGAATGAAGG
DNA 2: CCTTCATTCTACGCTGTCAATCGCATGCGCAAACTCAATGACCCGATAACCTACATATGC
B19: NRC3_wobSeed65_DR2_C16G_o1 (dsDNA)
DNA 1: B18 DNA 1 with C16G, G25C
DNA 2: B18 DNA 2 with C36G, G45C
B20: NRC3_wobSeed113_DR4_A14C_o1 (dsDNA)
DNA 1: GCATATGTAGGTTCGCTGGGGTCATTCAGACTAGGCGCGATTGACAGCGTAGAATGAAGG
DNA 2: CCTTCATTCTACGCTGTCAATCGCGCCTAGTCTGAATGACCCCAGCGAACCTACATATGC
B21: NRC3_wobSeed81_DR3_A13C_o1 (dsDNA)
DNA 1: GCATCTCTAGGTCACCAAGTTCAGTGAATGCCGAACGCGATTGACAGCGTAGAATGAAGG
DNA 2: CCTTCATTCTACGCTGTCAATCGCGTTCGGCATTCACTGAACTTGGTGACCTAGAGATGC
B22: NRC3_wobSeed73_DR3_G20T_o1 (dsDNA)
DNA 1: GCCAAACTAGGTCACAGAGTTCAAAGTCCGTGCGTAGCGATTGACAGCGTAGAATGAAGG
DNA 2: CCTTCATTCTACGCTGTCAATCGCTACGCACGGACTTTGAACTCTGTGACCTAGTTTGGC
B23: NRC3_wobSeed82_DR3_G22C_o1 (dsDNA)
DNA 1: GCATCGAAAGGTCGACGAGGTCAGTATACACCGTTTGCGATTGACAGCGTAGAATGAAGG
DNA 2: CCTTCATTCTACGCTGTCAATCGCAAACGGTGTATACTGACCTCGTCGACCTTTCGATGC
B24: NRC3_wobSeed94_DR3_G23A_o1 (dsDNA)
DNA 1: GCCTACCAAGGTGAACAAGGTCATTGATTACTATTCGCGATTGACAGCGTAGAATGAAGG
DNA 2: CCTTCATTCTACGCTGTCAATCGCGAATAGTAATCAATGACCTTGTTCACCTTGGTAGGC
B25: NRC3_wobSeed94_DR3_A17G_o1 (dsDNA)
DNA 1: B24 DNA 1 with A17G, A23G
DNA 2: B24 DNA 2 with T38C, T44C
B26: NRC3_wobSeed94_DR3_G13T_o1 (dsDNA)
DNA 1: B24 DNA 1 with G13T, A23G
DNA 2: B24 DNA 2 with T38C, C48A
B27: NRC3_wobSeed76_DR3_C12T_o1 (dsDNA)
DNA 1: GCCCTACTGGGTCAAAAAGGTCATTGATGCCGATAAGCGATTGACAGCGTAGAATGAAGG
DNA 2: CCTTCATTCTACGCTGTCAATCGCTTATCGGCATCAATGACCTTTTTGACCCAGTAGGGC

molecular target: PPARa:RXRa (Homo sapiens, UniProt Q07869;P19793 full;full); experiment: no ligand; PBM; 270 nM : 90 nM RXRa; PBS pH 7.4, 2% milk, 0.02% Triton X-100, 1 mM DTT, BSA, 0.4 mg/ml salmon testes DNA; conditions: tags: GST kept;His cleaved; copies: 1;1; label: surface-attached array probe
Sequence (Q07869 whole entry, chain 1 of 2): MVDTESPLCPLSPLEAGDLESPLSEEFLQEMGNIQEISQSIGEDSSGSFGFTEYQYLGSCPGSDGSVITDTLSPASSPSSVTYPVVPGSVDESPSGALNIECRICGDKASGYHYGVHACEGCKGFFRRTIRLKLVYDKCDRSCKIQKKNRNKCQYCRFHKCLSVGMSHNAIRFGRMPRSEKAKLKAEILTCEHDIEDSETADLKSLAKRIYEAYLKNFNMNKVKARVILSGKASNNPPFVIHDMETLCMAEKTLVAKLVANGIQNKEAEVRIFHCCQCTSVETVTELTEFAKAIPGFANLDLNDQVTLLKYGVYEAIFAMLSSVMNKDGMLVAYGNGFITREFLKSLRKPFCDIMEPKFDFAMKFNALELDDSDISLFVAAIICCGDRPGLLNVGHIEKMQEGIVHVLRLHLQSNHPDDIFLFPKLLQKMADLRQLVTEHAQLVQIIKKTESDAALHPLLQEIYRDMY
Sequence (P19793 whole entry, chain 2 of 2): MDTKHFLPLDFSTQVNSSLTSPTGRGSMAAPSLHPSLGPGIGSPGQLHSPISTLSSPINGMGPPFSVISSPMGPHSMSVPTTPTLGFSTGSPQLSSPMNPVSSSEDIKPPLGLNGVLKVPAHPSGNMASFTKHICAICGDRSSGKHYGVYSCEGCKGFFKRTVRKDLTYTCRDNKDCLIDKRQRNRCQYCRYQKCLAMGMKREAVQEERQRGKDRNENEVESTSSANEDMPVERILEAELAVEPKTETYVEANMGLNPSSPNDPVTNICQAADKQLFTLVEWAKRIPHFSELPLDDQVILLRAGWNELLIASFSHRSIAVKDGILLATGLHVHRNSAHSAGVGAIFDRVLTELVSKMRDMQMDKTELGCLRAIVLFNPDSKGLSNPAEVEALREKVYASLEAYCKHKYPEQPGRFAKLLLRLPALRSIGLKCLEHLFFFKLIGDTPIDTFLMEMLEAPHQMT
Outline: (§1)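 The probes on custom Agilent 4×180K protein-binding microarrays were double-stranded, with 34-nt variable regions bearing direct-repeat seeds, single-nucleotide variants, half-site ablations and random human genomic background sequences. Incubation lasted 1 h with ligand-free nuclear receptor dimers in PBS pH 7.4, 2% milk, 0.02% Triton X-100, 1 mM DTT, 0.2 mg/mL BSA and 0.4 mg/ml salmon testes DNA. Antibodies against each partner (one per run) detected bound dimers, and fluorescence scans were regression-normalized. Binding z-scores take the random background probes as reference.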

Row | Binder | binding signal
1 | B1 | 6.82 PBM z-score against 500 random probes
2 | B2 | 7.03 PBM z-score against 500 random probes
3 | B3 | 6.49 PBM z-score against 500 random probes
4 | B4 | -0.32 PBM z-score against 500 random probes

molecular target: RARb:RXRa (Homo sapiens, UniProt P10826;P19793 full;full); experiment: as above; conditions: tags: His kept;His cleaved; copies: 1;1; label: surface-attached array probe
Sequence (P10826 whole entry, chain 1 of 2): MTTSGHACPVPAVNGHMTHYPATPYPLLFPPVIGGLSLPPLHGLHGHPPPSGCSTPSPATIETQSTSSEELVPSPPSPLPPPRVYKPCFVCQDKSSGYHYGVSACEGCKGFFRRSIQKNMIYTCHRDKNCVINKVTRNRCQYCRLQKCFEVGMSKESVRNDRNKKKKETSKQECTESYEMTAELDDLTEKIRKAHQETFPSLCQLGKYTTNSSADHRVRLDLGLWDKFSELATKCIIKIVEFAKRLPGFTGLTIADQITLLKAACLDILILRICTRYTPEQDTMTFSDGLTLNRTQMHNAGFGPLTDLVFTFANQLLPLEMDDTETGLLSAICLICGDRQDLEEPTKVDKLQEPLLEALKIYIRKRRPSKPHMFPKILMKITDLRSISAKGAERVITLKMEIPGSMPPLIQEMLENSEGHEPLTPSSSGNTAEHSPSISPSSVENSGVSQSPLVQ
Sequence (P19793 whole entry, chain 2 of 2): as the sequence (P19793 whole entry, chain 2 of 2) above
Outline: as §1

Row | Binder | binding signal
5 | B1 | 5.63 PBM z-score against 500 random probes
6 | B2 | 6 PBM z-score against 500 random probes
7 | B5 | -1.11 PBM z-score against 500 random probes
8 | B6 | -0.61 PBM z-score against 500 random probes
9 | B7 | 5.7 PBM z-score against 500 random probes
10 | B4 | -0.05 PBM z-score against 500 random probes
11 | B8 | -0.19 PBM z-score against 500 random probes

molecular target: FXR:RXRa (Homo sapiens, UniProt Q96RI1;P19793 full;full); experiment: as above; conditions: tags: His kept;His cleaved; copies: 1;1; label: surface-attached array probe
Sequence (Q96RI1 whole entry, chain 1 of 2): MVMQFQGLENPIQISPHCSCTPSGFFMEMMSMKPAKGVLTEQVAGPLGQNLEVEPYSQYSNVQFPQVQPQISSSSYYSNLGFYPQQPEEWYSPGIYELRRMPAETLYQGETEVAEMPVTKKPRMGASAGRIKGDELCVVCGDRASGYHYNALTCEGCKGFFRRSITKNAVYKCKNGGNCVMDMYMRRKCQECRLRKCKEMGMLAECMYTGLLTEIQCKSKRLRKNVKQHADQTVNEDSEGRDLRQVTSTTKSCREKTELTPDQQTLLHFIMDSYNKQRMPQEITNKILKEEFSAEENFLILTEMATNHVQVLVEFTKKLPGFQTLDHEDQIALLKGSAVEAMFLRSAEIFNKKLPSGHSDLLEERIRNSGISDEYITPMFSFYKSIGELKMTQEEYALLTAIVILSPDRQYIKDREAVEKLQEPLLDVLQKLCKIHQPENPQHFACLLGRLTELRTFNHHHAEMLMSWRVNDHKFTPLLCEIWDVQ
Sequence (P19793 whole entry, chain 2 of 2): as the sequence (P19793 whole entry, chain 2 of 2) above
Outline: as §1

Row | Binder | binding signal
12 | B1 | 7.97 PBM z-score against 500 random probes
13 | B2 | 8.42 PBM z-score against 500 random probes
14 | B3 | 8.4 PBM z-score against 500 random probes

molecular target: VDR:RXRa (Homo sapiens, UniProt P11473;P19793 full;full); experiment: as above; conditions: tags: His kept;His cleaved; copies: 1;1; label: surface-attached array probe
Sequence (P11473 whole entry, chain 1 of 2): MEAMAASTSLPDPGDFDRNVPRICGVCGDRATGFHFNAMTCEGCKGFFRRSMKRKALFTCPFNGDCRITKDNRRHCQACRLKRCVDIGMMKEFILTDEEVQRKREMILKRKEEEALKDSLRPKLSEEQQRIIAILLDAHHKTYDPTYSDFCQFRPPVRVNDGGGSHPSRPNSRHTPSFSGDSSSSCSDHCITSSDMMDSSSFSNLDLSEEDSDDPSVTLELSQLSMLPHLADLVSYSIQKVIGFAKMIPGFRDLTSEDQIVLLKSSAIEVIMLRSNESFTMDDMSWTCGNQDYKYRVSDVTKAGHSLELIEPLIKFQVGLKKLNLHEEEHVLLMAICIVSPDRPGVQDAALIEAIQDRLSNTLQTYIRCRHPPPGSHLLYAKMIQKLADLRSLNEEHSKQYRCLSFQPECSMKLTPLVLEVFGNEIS
Sequence (P19793 whole entry, chain 2 of 2): as the sequence (P19793 whole entry, chain 2 of 2) above
Outline: as §1

Row | Binder | binding signal
15 | B9 | 6.9 PBM z-score against 500 random probes
16 | B10 | 6.76 PBM z-score against 500 random probes
17 | B11 | 7.63 PBM z-score against 500 random probes
18 | B12 | 6.59 PBM z-score against 500 random probes
19 | B13 | 6.73 PBM z-score against 500 random probes
20 | B14 | 7.34 PBM z-score against 500 random probes
21 | B15 | 8.27 PBM z-score against 500 random probes
22 | B16 | 7.63 PBM z-score against 500 random probes
23 | B17 | 6.63 PBM z-score against 500 random probes
24 | B18 | 6.9 PBM z-score against 500 random probes
25 | B19 | 6.73 PBM z-score against 500 random probes
26 | B20 | 7.03 PBM z-score against 500 random probes
27 | B21 | 7.59 PBM z-score against 500 random probes
28 | B22 | 8.45 PBM z-score against 500 random probes
29 | B23 | 7.66 PBM z-score against 500 random probes
30 | B24 | 7.03 PBM z-score against 500 random probes
31 | B25 | 6.62 PBM z-score against 500 random probes
32 | B26 | 6.93 PBM z-score against 500 random probes
33 | B27 | 6.93 PBM z-score against 500 random probes

molecular target: RARg:RXRa (Homo sapiens, UniProt P13631;P19793 full;full); experiment: as above; conditions: tags: His kept;His cleaved; copies: 1;1; label: surface-attached array probe
Sequence (P13631 whole entry, chain 1 of 2): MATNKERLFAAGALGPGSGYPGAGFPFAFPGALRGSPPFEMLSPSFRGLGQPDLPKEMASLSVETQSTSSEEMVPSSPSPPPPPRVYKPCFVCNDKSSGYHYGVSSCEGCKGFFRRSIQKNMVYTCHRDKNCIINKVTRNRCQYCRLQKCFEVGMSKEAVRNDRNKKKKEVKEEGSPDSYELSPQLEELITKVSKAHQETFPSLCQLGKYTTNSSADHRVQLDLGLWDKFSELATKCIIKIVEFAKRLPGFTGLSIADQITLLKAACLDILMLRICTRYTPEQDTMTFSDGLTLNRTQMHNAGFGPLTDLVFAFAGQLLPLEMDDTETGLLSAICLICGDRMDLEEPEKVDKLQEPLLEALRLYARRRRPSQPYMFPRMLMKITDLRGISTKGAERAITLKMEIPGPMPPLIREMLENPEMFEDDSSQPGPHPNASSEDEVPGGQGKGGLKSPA
Sequence (P19793 whole entry, chain 2 of 2): as the sequence (P19793 whole entry, chain 2 of 2) above
Outline: as §1

Row | Binder | binding signal
34 | B2 | 7.41 PBM z-score against 500 random probes
35 | B3 | 7.45 PBM z-score against 500 random probes
36 | B7 | 7.39 PBM z-score against 500 random probes

molecular target: RXRa (Homo sapiens, UniProt P19793); experiment: no ligand; PBM; 180 nM; PBS pH 7.4, 2% milk, 0.02% Triton X-100, 1 mM DTT, BSA, 0.4 mg/ml salmon testes DNA; conditions: tags: His cleaved; chain copies: 2; label: surface-attached array probe
Sequence (P19793 whole entry): as the sequence (P19793 whole entry, chain 2 of 2) above

Row | Binder | binding signal
37 | B1 | 7.78 PBM z-score against 500 random probes
38 | B2 | 8.38 PBM z-score against 500 random probes
39 | B3 | 8 PBM z-score against 500 random probes
40 | B5 | -0.24 PBM z-score against 500 random probes
41 | B6 | -1.05 PBM z-score against 500 random probes
42 | B7 | 7.9 PBM z-score against 500 random probes
43 | B4 | 0.04 PBM z-score against 500 random probes
44 | B8 | -0.51 PBM z-score against 500 random probes

Reference: PMC6555819, “Comprehensive study of nuclear receptor DNA binding provides a revised framework for understanding receptor specificity”
